Numbering of substitutions follows the chain as printed.
Columns and labels:
Assay in all cases: two-hybrid; LexA-Cdc1 bait (pBTM116 or pBTM116BN) with Gal4 activation domain-Cdc27 prey (pGAD2F-Cdc27) in S. cerevisiae CTY10-5d; ONPG liquid culture beta-galactosidase assay, mean of triplicates, as percent of wild-type Cdc1
Conditions in all cases: partners not purified
Cdc1-J6 = target: T1, Cdc1-J6 (Schizosaccharomyces pombe, UniProt P87324 1-462, Tyr-GlyValProHisTyr-Gly)
T1 construct: Cdc1, S. pombe, with a pentapeptide inserted after residue 124; source: yeast two-hybrid fusion, in S. cerevisiae CTY10-5d
T1 sequence (looked up): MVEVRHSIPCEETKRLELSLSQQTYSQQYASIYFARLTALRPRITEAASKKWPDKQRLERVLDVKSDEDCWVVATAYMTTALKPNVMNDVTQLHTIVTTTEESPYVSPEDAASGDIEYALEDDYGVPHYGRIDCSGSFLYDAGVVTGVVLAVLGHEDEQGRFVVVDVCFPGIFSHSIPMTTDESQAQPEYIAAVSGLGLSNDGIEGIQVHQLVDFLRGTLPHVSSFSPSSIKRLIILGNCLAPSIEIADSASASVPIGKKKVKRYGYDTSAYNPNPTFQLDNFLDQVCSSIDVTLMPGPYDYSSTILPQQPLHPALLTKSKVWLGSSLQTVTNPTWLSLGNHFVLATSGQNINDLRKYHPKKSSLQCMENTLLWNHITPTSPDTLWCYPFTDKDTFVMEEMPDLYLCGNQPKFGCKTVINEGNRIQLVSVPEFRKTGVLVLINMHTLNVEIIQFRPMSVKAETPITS

Cdc1-J15 = target: T2, Cdc1-J15 (Schizosaccharomyces pombe, UniProt P87324 1-462, Gln-GlyValProLeuGln-Val)
T2 construct: Cdc1, S. pombe, with a pentapeptide inserted after residue 203; source: yeast two-hybrid fusion, in S. cerevisiae CTY10-5d
T2 sequence (looked up): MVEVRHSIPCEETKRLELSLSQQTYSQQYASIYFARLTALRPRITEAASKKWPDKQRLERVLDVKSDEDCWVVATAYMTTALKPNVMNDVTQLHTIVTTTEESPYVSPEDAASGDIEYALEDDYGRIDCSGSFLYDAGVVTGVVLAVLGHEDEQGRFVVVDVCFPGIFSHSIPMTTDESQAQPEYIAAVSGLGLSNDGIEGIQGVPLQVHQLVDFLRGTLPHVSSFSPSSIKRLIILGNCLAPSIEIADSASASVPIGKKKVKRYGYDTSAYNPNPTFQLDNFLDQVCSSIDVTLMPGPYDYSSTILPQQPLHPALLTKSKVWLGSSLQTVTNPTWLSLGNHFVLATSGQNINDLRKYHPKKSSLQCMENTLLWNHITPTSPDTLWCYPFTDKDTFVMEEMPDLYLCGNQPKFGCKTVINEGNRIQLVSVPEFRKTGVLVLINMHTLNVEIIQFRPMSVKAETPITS

Cdc1-A9 = target: T3, Cdc1-A9 (Schizosaccharomyces pombe, UniProt P87324 1-462, Pro292Ala | Gly293Ala)
T3 construct: Cdc1, S. pombe, double point mutant (A1 and A2 combined); source: yeast two-hybrid fusion, in S. cerevisiae CTY10-5d
T3 sequence (looked up): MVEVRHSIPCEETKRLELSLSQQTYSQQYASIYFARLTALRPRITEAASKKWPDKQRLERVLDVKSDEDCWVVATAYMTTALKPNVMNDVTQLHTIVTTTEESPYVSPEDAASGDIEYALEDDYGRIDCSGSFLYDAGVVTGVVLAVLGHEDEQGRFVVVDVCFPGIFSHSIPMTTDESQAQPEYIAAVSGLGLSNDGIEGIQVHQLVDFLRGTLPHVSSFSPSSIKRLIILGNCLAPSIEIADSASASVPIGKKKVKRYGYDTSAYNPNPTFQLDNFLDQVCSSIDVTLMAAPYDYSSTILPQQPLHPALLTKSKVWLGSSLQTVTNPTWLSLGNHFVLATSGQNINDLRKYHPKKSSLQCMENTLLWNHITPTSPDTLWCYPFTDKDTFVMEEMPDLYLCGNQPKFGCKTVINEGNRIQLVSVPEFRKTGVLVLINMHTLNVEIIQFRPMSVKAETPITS

Cdc1-A10 = target: T4, Cdc1-A10 (Schizosaccharomyces pombe, UniProt P87324 1-462, Asn328Ala | Pro329Ala)
T4 construct: Cdc1, S. pombe, double point mutant (A5 and A6 combined); source: yeast two-hybrid fusion, in S. cerevisiae CTY10-5d
T4 sequence (looked up): T3 sequence (looked up) with A292P, A293G, N328A, P329A

two-hybrid beta-galactosidase activity, % of wild-type Cdc1 (Cdc1-J6): < 1%
two-hybrid beta-galactosidase activity, % of wild-type Cdc1 (Cdc1-J15): 78%
two-hybrid beta-galactosidase activity, % of wild-type Cdc1 (Cdc1-A9): 58%
two-hybrid beta-galactosidase activity, % of wild-type Cdc1 (Cdc1-A10): 72%
B1: Cdc27 (fission yeast DNA polymerase delta C-subunit) (natural protein, Schizosaccharomyces pombe, UniProt P30261 1-372, looked up)
chain: MEEWRNFLDIKVINESSLVTVDNLSLQLDISSEKAQEYLNMFYQGNDFLYPIYLIHGQPIDDEINLEIDEESQPISNFPVLQYILCDKSSLQEKQSRLKSGYKTVIFALSSAPLSDFDELLPAVYEIREKDVLYKKEDADKYGFIFNENSVPRVLKKAPSTHSPQLSVPSKTSTIDKTDTRSTEKTKGKDIFSNARNQKGNSSRKNKKAPLENHKEKEPLLPKEEKLSEQAKRERDDLKNIMQLEDESVSTTSVHDSEDDNLDSNNFQLEIGTEAKSAAPDEPQEIIKSVSGGKRRGKRKVKKYATTKDEEGFLVTKEEEVWESFSEDENISTGTSNVVRNKPTTVNIATKKKNTAQSKPQQKSIMSFFGKK
notes: DNA polymerase delta C-subunit Cdc27, S. pombe; prey plasmid pGAD2F-Cdc27; also called pGAD2F-Cdc27; source: yeast two-hybrid fusion, in S. cerevisiae CTY10-5d
